These results are taken from patent US20110305629A1.

For one assay, the target named is αvβ6 (UniProt P06756). As to the kind of experiment: binding ELISA; murine secondary.
Assay [1] concerns the target human αvβ6 integrin on cells (human) (UniProt P06756). As to the kind of experiment: cell-based or functional assay.
The target of assay [2] is rhesus monkey αvβ6 integrin on 4MBr5 cells (rhesus monkey) (UniProt H9ETF2). As to the kind of experiment: cell-based or functional assay.
For assay [3] the target is unchanged. As to the kind of experiment: flow cytometry titration on 4MBr5 cells; given as ED50. (In general: A flow cytometer gives signals particle by particle.)
Assay [4] concerns the target African green monkey αvβ6 integrin on 12MBr6 cells (African green monkey). As to the kind of experiment: flow cytometry titration on 12MBr6 cells; given as ED50.
In assay [5] the target is human αvβ6 integrin on cells (human) (UniProt P06756). As to the kind of experiment: cell adhesion assay: SCC-14 cells to LAP, inhibition by m3G9.
For assay [6] the target is unchanged. As to the kind of experiment: cell adhesion assay: SW480β6 cells to LAP, inhibition by m3G9.
The target is the same in assay [7]. As to the kind of experiment: cell adhesion assay: Detroit562 cells to LAP, inhibition by m3G9.
The target of assay [8] is rhesus monkey αvβ6 integrin on 4MBr5 cells (rhesus monkey) (UniProt H9ETF2). As to the kind of experiment: cell adhesion assay: labelled 4MBr5 cells on LAP-coated plate, inhibition by m3G9.
Assay [9] addresses African green monkey αvβ6 integrin on 12MBr6 cells (African green monkey). As to the kind of experiment: cell adhesion assay: labelled 12MBr6 cells on LAP-coated plate, inhibition by m3G9.
Assay [10] has as its target rhesus monkey αvβ6 integrin on 4MBr5 cells (rhesus monkey) (UniProt H9ETF2). As to the kind of experiment: cell adhesion assay: 4MBr5 cells to LAP; the text gives the cell lines the other way round than the table.
Assay [11] deals with African green monkey αvβ6 integrin on 12MBr6 cells (African green monkey). As to the kind of experiment: cell adhesion assay: 12MBr6 cells to LAP; the text gives the cell lines the other way round than the table.
Assay [12] addresses rhesus monkey αvβ6 integrin on 4MBr5 cells (rhesus monkey) (UniProt H9ETF2). As to the kind of experiment: flow cytometry titration on 4MBr5 cells; given as ED50; the text gives the cell lines the other way round than the table.
The target in assay [13] is African green monkey αvβ6 integrin on 12MBr6 cells (African green monkey). As to the kind of experiment: flow cytometry titration on 12MBr6 cells; given as ED50; the text gives the cell lines the other way round than the table.

human αvβ6 integrin on cells (human), sequence (P06756 31-1048, chain 1 of 2): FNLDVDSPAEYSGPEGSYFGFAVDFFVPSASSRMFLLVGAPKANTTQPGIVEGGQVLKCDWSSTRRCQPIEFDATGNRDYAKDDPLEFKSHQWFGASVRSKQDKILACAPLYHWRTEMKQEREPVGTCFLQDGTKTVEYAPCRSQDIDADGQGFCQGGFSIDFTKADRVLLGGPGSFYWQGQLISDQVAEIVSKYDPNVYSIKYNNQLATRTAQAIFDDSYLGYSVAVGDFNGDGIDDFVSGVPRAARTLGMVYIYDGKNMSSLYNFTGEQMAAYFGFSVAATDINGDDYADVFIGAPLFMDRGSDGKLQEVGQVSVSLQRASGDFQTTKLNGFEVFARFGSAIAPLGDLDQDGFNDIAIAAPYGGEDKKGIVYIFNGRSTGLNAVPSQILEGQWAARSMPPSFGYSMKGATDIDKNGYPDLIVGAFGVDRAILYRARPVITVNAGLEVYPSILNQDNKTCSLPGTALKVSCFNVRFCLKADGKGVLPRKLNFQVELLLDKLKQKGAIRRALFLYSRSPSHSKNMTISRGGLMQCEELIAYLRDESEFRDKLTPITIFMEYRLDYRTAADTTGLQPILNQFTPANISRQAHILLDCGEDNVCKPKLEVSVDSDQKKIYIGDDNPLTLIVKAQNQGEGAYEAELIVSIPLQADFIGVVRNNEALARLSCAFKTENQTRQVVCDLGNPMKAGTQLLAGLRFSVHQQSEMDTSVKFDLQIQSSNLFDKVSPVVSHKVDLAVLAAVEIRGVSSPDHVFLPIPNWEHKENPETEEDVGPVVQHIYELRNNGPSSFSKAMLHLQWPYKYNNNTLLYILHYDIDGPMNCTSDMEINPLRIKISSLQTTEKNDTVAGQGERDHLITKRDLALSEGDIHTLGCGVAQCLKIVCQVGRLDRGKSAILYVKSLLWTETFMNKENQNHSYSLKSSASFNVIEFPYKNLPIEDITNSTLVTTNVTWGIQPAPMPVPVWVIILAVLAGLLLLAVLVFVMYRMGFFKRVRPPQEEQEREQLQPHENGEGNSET
human αvβ6 integrin on cells (human), sequence (P18564 22-788, chain 2 of 2, further chain): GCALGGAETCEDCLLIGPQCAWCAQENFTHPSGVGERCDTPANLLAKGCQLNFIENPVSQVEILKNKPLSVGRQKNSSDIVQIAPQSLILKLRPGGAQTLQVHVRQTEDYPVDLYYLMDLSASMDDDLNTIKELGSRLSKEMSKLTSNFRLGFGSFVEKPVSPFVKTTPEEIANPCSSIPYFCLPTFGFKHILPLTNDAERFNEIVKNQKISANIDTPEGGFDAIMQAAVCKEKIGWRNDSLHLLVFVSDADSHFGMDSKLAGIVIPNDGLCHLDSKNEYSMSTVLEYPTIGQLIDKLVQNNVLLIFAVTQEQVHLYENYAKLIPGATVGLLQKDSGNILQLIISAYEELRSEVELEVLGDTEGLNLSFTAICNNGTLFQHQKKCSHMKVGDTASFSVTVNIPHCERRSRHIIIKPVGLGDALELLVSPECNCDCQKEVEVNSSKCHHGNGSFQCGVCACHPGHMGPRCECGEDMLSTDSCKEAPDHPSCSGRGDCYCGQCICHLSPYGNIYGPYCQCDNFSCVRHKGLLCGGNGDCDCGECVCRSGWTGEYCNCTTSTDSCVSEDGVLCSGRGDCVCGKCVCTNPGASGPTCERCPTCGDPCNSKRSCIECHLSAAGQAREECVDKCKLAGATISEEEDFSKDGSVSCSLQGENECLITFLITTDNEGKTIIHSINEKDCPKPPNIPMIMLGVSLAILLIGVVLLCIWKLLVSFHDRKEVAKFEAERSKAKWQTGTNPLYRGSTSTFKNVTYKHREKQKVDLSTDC
αvβ6, sequence (P06756 31-992, chain 1 of 2): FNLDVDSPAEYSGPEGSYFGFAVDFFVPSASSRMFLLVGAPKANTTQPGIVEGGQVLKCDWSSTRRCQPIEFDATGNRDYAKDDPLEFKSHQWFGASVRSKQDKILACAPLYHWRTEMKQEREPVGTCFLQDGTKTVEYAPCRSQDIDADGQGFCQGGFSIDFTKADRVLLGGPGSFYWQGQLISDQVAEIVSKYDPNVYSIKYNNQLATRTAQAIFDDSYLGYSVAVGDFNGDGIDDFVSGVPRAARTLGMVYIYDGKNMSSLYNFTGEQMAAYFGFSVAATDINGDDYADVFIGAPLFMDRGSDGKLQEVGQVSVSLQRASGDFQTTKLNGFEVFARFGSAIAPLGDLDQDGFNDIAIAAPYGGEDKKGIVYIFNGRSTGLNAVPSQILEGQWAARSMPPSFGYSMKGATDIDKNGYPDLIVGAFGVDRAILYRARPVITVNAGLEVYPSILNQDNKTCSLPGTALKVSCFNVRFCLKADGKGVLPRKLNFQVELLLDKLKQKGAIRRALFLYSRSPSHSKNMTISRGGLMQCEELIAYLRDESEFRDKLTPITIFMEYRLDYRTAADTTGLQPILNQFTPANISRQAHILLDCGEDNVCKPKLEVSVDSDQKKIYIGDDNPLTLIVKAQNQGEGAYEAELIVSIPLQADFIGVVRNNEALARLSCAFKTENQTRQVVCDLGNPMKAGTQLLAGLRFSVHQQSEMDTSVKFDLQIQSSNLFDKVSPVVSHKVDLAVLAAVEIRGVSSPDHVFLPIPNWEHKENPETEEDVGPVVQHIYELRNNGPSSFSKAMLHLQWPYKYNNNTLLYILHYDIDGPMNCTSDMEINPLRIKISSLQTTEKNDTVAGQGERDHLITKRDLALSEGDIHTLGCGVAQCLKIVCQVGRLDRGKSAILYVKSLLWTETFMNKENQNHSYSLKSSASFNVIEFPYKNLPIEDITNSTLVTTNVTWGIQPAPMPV
αvβ6, sequence (P18564 22-709, chain 2 of 2, further chain): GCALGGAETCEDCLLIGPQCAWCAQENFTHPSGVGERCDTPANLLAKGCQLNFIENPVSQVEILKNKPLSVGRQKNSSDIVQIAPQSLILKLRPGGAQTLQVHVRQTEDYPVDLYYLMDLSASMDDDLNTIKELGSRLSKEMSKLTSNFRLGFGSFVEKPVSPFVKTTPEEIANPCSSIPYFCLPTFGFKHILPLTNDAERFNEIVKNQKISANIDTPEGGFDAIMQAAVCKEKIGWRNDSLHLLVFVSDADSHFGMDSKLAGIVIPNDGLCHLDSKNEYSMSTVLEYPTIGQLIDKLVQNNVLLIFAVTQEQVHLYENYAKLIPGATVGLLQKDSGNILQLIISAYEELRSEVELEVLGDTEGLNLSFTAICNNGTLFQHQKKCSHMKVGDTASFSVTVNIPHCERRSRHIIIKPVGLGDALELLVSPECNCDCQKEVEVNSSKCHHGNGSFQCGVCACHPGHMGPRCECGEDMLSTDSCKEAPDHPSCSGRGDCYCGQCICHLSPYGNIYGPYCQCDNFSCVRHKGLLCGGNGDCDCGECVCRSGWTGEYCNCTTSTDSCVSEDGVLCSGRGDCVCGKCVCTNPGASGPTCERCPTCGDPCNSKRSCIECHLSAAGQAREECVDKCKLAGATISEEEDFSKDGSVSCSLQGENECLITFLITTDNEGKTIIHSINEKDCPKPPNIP

With m3G9 (murine secondary), in the assay with αvβ6, the EC50 was 0.021 µg/mL.
In [1], murine monoclonal antibody 6.3G9 registered a Coculture IC50, µg/mL (TGFβ activation by SW480β6 cells, TMLC luciferase reporter cells) of 0.37 µg/mL. In assay [1], this substance yielded an IC50, coculture assay (SW480β6) of 0.24 µg/mL. In addition, the Coculture IC50, µg/mL (TGFβ activation by 4MBr5 cells, TMLC luciferase reporter cells) in [2] came out at 0.31 µg/mL. In addition, the IC50, coculture assay (4MBr5) in assay [2] worked out at 0.4 µg/mL. In addition, the EC50 is 0.3 µg/mL in [3], 0.38 µg/mL in assay [4], 0.38 µg/mL in assay [12] and 0.3 µg/mL in [13]. Also, the IC50 was determined as 0.16 µg/mL in assay [5]; 0.03 µg/mL in [6]; 0.04 µg/mL in assay [7]; 0.22 µg/mL in assay [8]; 0.29 µg/mL in assay [9]; 0.29 µg/mL in assay [10]. In assay [11], this substance returned an IC50 of 0.22 µg/mL.

For orientation: EC50 means the midpoint of the concentration-response curve. As usually defined, the IC50 is the midpoint of a concentration-inhibition curve.
